The results in this text go back to publication PMC3416963.

What is called Km is the concentration of substrate that gives half-maximal velocity. A word on the kcat: it is the number of substrate molecules converted per active site and unit of time at saturation. As a reminder, the kcat/Km is the second-order rate constant that governs catalysis at low substrate concentration.

Substrate in the series: O=C(O)c1cc(C(=O)O)oc(=O)c1
Kind of series: purified protein. The format is biochemical, Sphingobium sp. SYK-6. Conditions: 50 mM BICINE pH 8.25, 30 °C.

B1: LigI (Sphingobium sp. SYK-6; H178A) (protein)
chain: TNDERILSWNETPSKPRYTPPPGAIDAHCHVFGPMAQFPFSPKAKYLPRDAGPDMLFALRDHLGFARNVIVQASCHGTDNAATLDAIARAQGKARGIAVVDPAIDEAELAALHEGGMRGIRFNFLKRLVDDAPKDKFLEVAGRLPAGWHVVIYFEADILEELRPFMDAIPVPIVIDAMGRPDVRQGPDGADMKAFRRLLDSREDIWFKATCPDRLDPAGPPWDDFARSVAPLVADYADRVIWGTDWPHPNMQDAIPDDGLVVDMIPRIAPTPELQHKMLVTNPMRLYWSEEM
With B1, the Km came to 214 ± 44 µM, the kcat came to 8 ± 0.9 s⁻¹ and the kcat/Km was 37000 ± 4000 M⁻¹ s⁻¹.

B2: LigI (Sphingobium sp. SYK-6; Y47F) (protein)
chain: TNDERILSWNETPSKPRYTPPPGAIDAHCHVFGPMAQFPFSPKAKFLPRDAGPDMLFALRDHLGFARNVIVQASCHGTDNAATLDAIARAQGKARGIAVVDPAIDEAELAALHEGGMRGIRFNFLKRLVDDAPKDKFLEVAGRLPAGWHVVIYFEADILEELRPFMDAIPVPIVIDHMGRPDVRQGPDGADMKAFRRLLDSREDIWFKATCPDRLDPAGPPWDDFARSVAPLVADYADRVIWGTDWPHPNMQDAIPDDGLVVDMIPRIAPTPELQHKMLVTNPMRLYWSEEM
For B2, the Km is 217 ± 41 µM, the kcat came to 26 ± 2 s⁻¹ and the specificity constant (kcat/Km) turned out to be 120000 ± 2000 M⁻¹ s⁻¹.

B3: LigI (Sphingobium sp. SYK-6; H31N) (protein)
chain: TNDERILSWNETPSKPRYTPPPGAIDAHCNVFGPMAQFPFSPKAKYLPRDAGPDMLFALRDHLGFARNVIVQASCHGTDNAATLDAIARAQGKARGIAVVDPAIDEAELAALHEGGMRGIRFNFLKRLVDDAPKDKFLEVAGRLPAGWHVVIYFEADILEELRPFMDAIPVPIVIDHMGRPDVRQGPDGADMKAFRRLLDSREDIWFKATCPDRLDPAGPPWDDFARSVAPLVADYADRVIWGTDWPHPNMQDAIPDDGLVVDMIPRIAPTPELQHKMLVTNPMRLYWSEEM
In the case of B3, the Km turned out to be 89 ± 20 µM, the kcat was 3.6 ± 0.3 s⁻¹ and the kcat/Km is 41000 ± 6000 M⁻¹ s⁻¹.

B4: LigI (Sphingobium sp. SYK-6; D246N) (protein)
chain: TNDERILSWNETPSKPRYTPPPGAIDAHCHVFGPMAQFPFSPKAKYLPRDAGPDMLFALRDHLGFARNVIVQASCHGTDNAATLDAIARAQGKARGIAVVDPAIDEAELAALHEGGMRGIRFNFLKRLVDDAPKDKFLEVAGRLPAGWHVVIYFEADILEELRPFMDAIPVPIVIDHMGRPDVRQGPDGADMKAFRRLLDSREDIWFKATCPDRLDPAGPPWDDFARSVAPLVADYADRVIWGTNWPHPNMQDAIPDDGLVVDMIPRIAPTPELQHKMLVTNPMRLYWSEEM
Turning to B4, the Km is 66 ± 13 µM, the kcat is 0.023 ± 0.001 s⁻¹ and the specificity constant (kcat/Km) was 200 ± 34 M⁻¹ s⁻¹.

B5: LigI (Sphingobium sp. SYK-6; Y154F) (protein)
chain: TNDERILSWNETPSKPRYTPPPGAIDAHCHVFGPMAQFPFSPKAKYLPRDAGPDMLFALRDHLGFARNVIVQASCHGTDNAATLDAIARAQGKARGIAVVDPAIDEAELAALHEGGMRGIRFNFLKRLVDDAPKDKFLEVAGRLPAGWHVVIFFEADILEELRPFMDAIPVPIVIDHMGRPDVRQGPDGADMKAFRRLLDSREDIWFKATCPDRLDPAGPPWDDFARSVAPLVADYADRVIWGTDWPHPNMQDAIPDDGLVVDMIPRIAPTPELQHKMLVTNPMRLYWSEEM
As for B5, the Km was found to be 238 ± 19 µM, the kcat was 8.7 ± 0.3 s⁻¹ and the catalytic efficiency (kcat/Km) was determined as 37000 ± 200 M⁻¹ s⁻¹.

B6: LigI (Sphingobium sp. SYK-6; R122M) (protein)
chain: TNDERILSWNETPSKPRYTPPPGAIDAHCHVFGPMAQFPFSPKAKYLPRDAGPDMLFALRDHLGFARNVIVQASCHGTDNAATLDAIARAQGKARGIAVVDPAIDEAELAALHEGGMRGIMFNFLKRLVDDAPKDKFLEVAGRLPAGWHVVIYFEADILEELRPFMDAIPVPIVIDHMGRPDVRQGPDGADMKAFRRLLDSREDIWFKATCPDRLDPAGPPWDDFARSVAPLVADYADRVIWGTDWPHPNMQDAIPDDGLVVDMIPRIAPTPELQHKMLVTNPMRLYWSEEM
Turning to B6, the Km stood at 90 ± 15 µM, the kcat is 0.02 ± 0.001 s⁻¹ and the kcat/Km amounted to 200 ± 22 M⁻¹ s⁻¹.

B7: LigI (Sphingobium sp. SYK-6; H29N) (protein)
chain: TNDERILSWNETPSKPRYTPPPGAIDANCHVFGPMAQFPFSPKAKYLPRDAGPDMLFALRDHLGFARNVIVQASCHGTDNAATLDAIARAQGKARGIAVVDPAIDEAELAALHEGGMRGIRFNFLKRLVDDAPKDKFLEVAGRLPAGWHVVIYFEADILEELRPFMDAIPVPIVIDHMGRPDVRQGPDGADMKAFRRLLDSREDIWFKATCPDRLDPAGPPWDDFARSVAPLVADYADRVIWGTDWPHPNMQDAIPDDGLVVDMIPRIAPTPELQHKMLVTNPMRLYWSEEM
Take B7: the Km was found to be 720 ± 122 µM, the kcat came out at 0.4 ± 0.04 s⁻¹ and the kcat/Km worked out at 500 ± 37 M⁻¹ s⁻¹.

B8: LigI (Sphingobium sp. SYK-6; H178C) (protein)
chain: TNDERILSWNETPSKPRYTPPPGAIDAHCHVFGPMAQFPFSPKAKYLPRDAGPDMLFALRDHLGFARNVIVQASCHGTDNAATLDAIARAQGKARGIAVVDPAIDEAELAALHEGGMRGIRFNFLKRLVDDAPKDKFLEVAGRLPAGWHVVIYFEADILEELRPFMDAIPVPIVIDCMGRPDVRQGPDGADMKAFRRLLDSREDIWFKATCPDRLDPAGPPWDDFARSVAPLVADYADRVIWGTDWPHPNMQDAIPDDGLVVDMIPRIAPTPELQHKMLVTNPMRLYWSEEM
On to B8, for which the Km is 41 ± 7 µM, the kcat worked out at 32 ± 4 s⁻¹ and the kcat/Km was determined as 780000 ± 50000 M⁻¹ s⁻¹.

B9: LigI (Sphingobium sp. SYK-6; R128M) (protein)
chain: TNDERILSWNETPSKPRYTPPPGAIDAHCHVFGPMAQFPFSPKAKYLPRDAGPDMLFALRDHLGFARNVIVQASCHGTDNAATLDAIARAQGKARGIAVVDPAIDEAELAALHEGGMRGIRFNFLKMLVDDAPKDKFLEVAGRLPAGWHVVIYFEADILEELRPFMDAIPVPIVIDHMGRPDVRQGPDGADMKAFRRLLDSREDIWFKATCPDRLDPAGPPWDDFARSVAPLVADYADRVIWGTDWPHPNMQDAIPDDGLVVDMIPRIAPTPELQHKMLVTNPMRLYWSEEM
For B9, the Km was 465 ± 104 µM, the kcat was 5 ± 0.4 s⁻¹ and the kcat/Km turned out to be 11000 ± 7000 M⁻¹ s⁻¹.
